Test results: patent US20190070248A1 (BIONTECH, published 2019)
Positions of bridges follow the written chain, without caps; N, C: chain ends. No end group written: not given here. *: point of attachment. Biotin = O=C1N[C@H]2[C@H](CS[C@H]2CCCCC(=O)*)N1

Legend:
[1] = target: T1, TR66 antibody (CD3ε specific antibody, clone TR66); experiment: apparent KD, peptide ELISA, biotinylated peptide on streptavidin plate, TR66 titrated, two-site saturation fit
T1 construct: Whole antibody

[2] = target: T1, TR66 antibody (CD3ε specific antibody, …); experiment: peptide ELISA, apparent KD against the parental peptide

B1: aCD3 C7C-4 (ACTRPGDPQC-GGGS-K(Bio)) (peptide)
peptide: ACTRPGDPQCGGGSK(Biotin)
modifications: disulfide 2-10 (inferred)
notes: On the microarrays the peptide was immobilized covalently through a reactive moiety, not through K(Bio); also called clone 4; parental peptide
Kd [1]: 370 nM

ACTRPGDPYCGGGSK(Biotin) (disulfide 2-10 (inferred)) [aCD3-04-009 (ACTRPGDPYC-GGGS-K(Bio))]
Kd [1]: 167 nM

ACTRPDDPWCGGGSK(Biotin) (disulfide 2-10 (inferred)) [aCD3-04-014 (ACTRPDDPWC-GGGS-K(Bio))]
Kd [1]: 111 nM

ACTRPDDPQCGGGSK(Biotin) (disulfide 2-10 (inferred)) [aCD3-04-002 (ACTRPDDPQC-GGGS-K(Bio))]
fold lower apparent KD than the parental peptide aCD3 C7C-4 [2]: ~5 fold
Kd [1]: 78 nM

ACTRPDDPECGGGSK(Biotin) (disulfide 2-10 (inferred), also called TR66 mimotope aCD3-04-013) [aCD3-04-013 (ACTRPDDPEC-GGGS-K(Bio))]
fold lower apparent KD than the parental peptide aCD3 C7C-4 [2]: ~100 fold
Kd [1]: 4 nM

WCTRPGDPQCGGGSK(Biotin) (disulfide 2-10 (inferred)) [aCD3-04-006 (WCTRPGDPQC-GGGS-K(Bio))]
Kd [1]: 226 nM

ACTRPGDPACGGGSK(Biotin) (disulfide 2-10 (inferred)) [aCD3-04-008 (ACTRPGDPAC-GGGS-K(Bio))]
Kd [1]: 164 nM

ACTRPEDPQCGGGSK(Biotin) (disulfide 2-10 (inferred)) [aCD3-04-007 (ACTRPEDPQC-GGGS-K(Bio))]
Kd [1]: 299 nM
